For this assay, the target named is T1, TNFR1 (Homo sapiens, UniProt P19438).
T1 chain: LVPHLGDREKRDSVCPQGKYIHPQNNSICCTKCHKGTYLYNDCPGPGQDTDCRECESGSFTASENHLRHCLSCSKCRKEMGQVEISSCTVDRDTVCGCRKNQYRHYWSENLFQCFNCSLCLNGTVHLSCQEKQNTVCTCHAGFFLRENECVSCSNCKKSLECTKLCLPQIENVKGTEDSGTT
As to the kind of experiment: SPR.

As usually defined, the Kd is the equilibrium constant for the complex coming apart. A high value points to a looser complex.

B1: Atrosimab (antibody)
chain 1: HVQLVQSGAEVKKPGSSVKVSCKASGYTFTDFYINWVRQAPGQGLEWIGEIVPSQGEAKYNDKFKARVTITADKSTSTAYMELSSLRSEDTAVYYCARWDFLDYWGQGTTVTVSSGTGGGSGPSVFLFPPKPKDTLMISRTPEVTCVVVDVSHEDPEVKFNWYVDGVEVHNAKTKPREEQYNSTYRVVSVLTVLHQDWLNGKEYKCKVSNKGLPSSIEKTISKAKGQPREPSVFIFPPSDEQLKSGTASVVCLVNNFYPRDIAVEWEVDNALQSGNSQESVTEQDSKDSTYSLSSTLTLSKADYEKHKVYSCSVMHEALHNHYTQKSFNRGEC
chain 2: DVQMTQSPSSLSASVGDRVTITCRSSQSLLHSNGNTYLHWYQQKPGKAPKLLIYTVSNRFSGVPSRFSGSGSGTDFTLTISSLQPEDFATYYCSQSTHVPYTFGGGTKVEIKGTGGGSGPSVFLFPPKPKDTLMISRTPEVTCVVVDVSHEDPEVKFNWYVDGVEVHNAKTKPREEQYNSTYRVVSVLTVLHQDWLNGKEYKCKVSNKGLPSSIEKTISKAKGQPREPSVFPLAPSSKSTSGGTAALGCLVKDYFPSDIAVEWESGALTSGVHTFPAVLQSSGLYSLSSVVTVPSSSLGTQTYSCSVMHEALHNHYTQKSVEPKSC
Turning to B1, the Kd amounted to 5.01 nM.

The values above are taken from PMC8294390 (2021).
